Measurements taken from the supplement of paper PMC10567573.

B1: FAM189A2 (parent)
chain: CALNALTTTVCLVAAALRYLQIFA
B2: ZNF511 (parent)
chain: EPLPVERDPAAGAAPFRFVARPVR

Variants of: B1
Assay: protein stability index of a GFP-peptide fusion (GPS, HEK-293T) (PSI 1-6); higher = more stable
Conditions: c terminus: a fixed tail appended
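Further: lentivirally expressed fusions sorted by FACS into six bins by GFP to DsRed ratio, PSI derived from sequencing read proportions per bin multiplied by bin number.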

Protein stability index of substitutions, site by site:
Y19: A 3.25 | L 3.58 | R 2.4 | I 3.74 | V 1.9 | F 3.29 | K 2.19
A15: G 2.9 | W 2.59 | K 2.76 | I 3.05 | Q 2.05 | L 2.19
A14: N 3.17 | V 1.9 | S 4.79 | M 3.17 | E 3.46 | P 3.27
N4: H 3.53 | F 2.81 | P 2.66 | I 2.87 | V 3.46 | W 2.84
T7: S 2.85 | Y 3.46 | M 4.03 | Q 3.37 | I 3.6
F23: R 3.81 | I 3.76 | K 2.94 | V 4.08 | E 3.61 | G 4.67 | Q 4.3 | N 4.28 | H 4.92
T9: N 2.79 | G 4.16 | H 2.19 | Q 3.59 | P 3.2 | L 2.69 | F 2.07 | V 3.39
C11: Q 1.41 | D 2.75 | R 3.69 | S 2.18 | Y 3.58
V10: K 2.08 | T 2.65 | P 2.12 | A 2.46 | S 4.12 | C 1.42 | W 2.05 | M 1.98 | F 1.53 | G 4.6 | N 2.53
Q21: I 2.65 | R 1.72 | E 3.35 | S 1.64 | W 2.74 | G 2.9
A24: M 2.65 | L 2.63 | N 1.88 | H 3.64 | Y 3.32 | W 2.96 | F 2.59
C1: A 2.05 | L 1.59 | I 2.86 | T 3.21 | H 2.7 | D 2.46 | R 3.14
L6: R 2.87 | Y 3.27 | A 2.83 | Q 2.83 | I 1.47 | G 4.13 | D 3.49 | K 1.77 | T 2.87
R18: L 2.98 | Q 2.72 | I 3.84 | N 3.9 | Y 3.89 | G 3.25 | P 1.82 | W 2.99 | C 3.91
L17: V 1.38 | P 2.91 | F 3.04 | Q 2.57 | A 1.47 | N 3.87 | T 2.14
A5: C 3.07 | V 1.92 | M 3.65 | R 2.98 | Y 3.68 | P 2.7
T8: R 2.69 | C 2.95 | P 2.92 | H 2.94
I22: G 3.11 | P 4.03 | V 2.72 | M 3.76 | Y 2.44
L3: A 3.13 | P 3.65 | R 2.9 | V 2.62 | H 2.11 | F 3.52 | T 2.98 | D 3.27 | C 4.07
A2: T 4.22 | W 2.26 | N 3.43 | F 4.07 | R 3.42
V13: G 3.15 | A 2.99 | R 3.73 | M 2.25 | Y 2.68 | I 2.9 | W 3.96
A16: E 3.27 | D 3.52 | F 2.55 | C 4.04 | I 4.22 | T 1.94
L20: M 3.29 | V 1.72 | R 3.02 | T 3.88 | N 2.53
L12: N 4.01 | K 2.3 | E 1.51 | P 3.76 | A 3.5 | M 3.44 | Y 3.88 | T 2.96

Variants of: B2
Assay: as above
Conditions: c terminus: a fixed tail appended

Protein stability index, by site and new letter:
E1: F 2.85 | D 2.73 | A 2.57 | C 2.64
